According to patent US6958236B2, “Control of gene expression in plants” (priority 2000, dated 2005):

B1: DrosFL: full-length Drosophila EcR expression cassette in pPacU (protein, UniProt P34021 1-878, looked up)
chain: MKRRWSNNGGFMRLPEESSSEVTSSSNGLVLPSGVNMSPSSLDSHDYCDQDLWLCGNESGSFGGSNGHGLSQQQQSVITLAMHGCSSTLPAQTTIIPINGNANGNGGSTNGQYVPGATNLGALANGMLNGGFNGMQQQIQNGHGLINSTTPSTPTTPLHLQQNLGGAGGGGIGGMGILHHANGTPNGLIGVVGGGGGVGLGVGGGGVGGLGMQHTPRSDSVNSISSGRDDLSPSSSLNGYSANESCDAKKSKKGPAPRVQEELCLVCGDRASGYHYNALTCEGCKGFFRRSVTKSAVYCCKFGRACEMDMYMRRKCQECRLKKCLAVGMRPECVVPENQCAMKRREKKAQKEKDKMTTSPSSQHGGNGSLASGGGQDFVKKEILDLMTCEPPQHATIPLLPDEILAKCQARNIPSLTYNQLAVIYKLIWYQDGYEQPSEEDLRRIMSQPDENESQTDVSFRHITEITILTVQLIVEFAKGLPAFTKIPQEDQITLLKACSSEVMMLRMARRYDHSSDSIFFANNRSYTRDSYKMAGMADNIEDLLHFCRQMFSMKVDNVEYALLTAIVIFSDRPGLEKAQLVEAIQSYYIDTLRIYILNRHCGDSMSLVFYAKLLSILTELRTLGNQNAEMCFSLKLKNRKLPKFLEEIWDVHAIPPSVQSHLQITQEENERLERAERMRASVGGAITAGIDCDSASTSAAAAAAQHQPQPQPQPQPSSLTQNDSQHQTQPQLQPQLPPQLQGQLQPQLQPQLQTQLQPQIQPQPQLLPVSAPVPASVTAPGSLSAVSTSSEYMGGSAAIGPITPATTSSITAAVTASSTTSAVPMGNGVGVGVGVGGNVSMYANAQTAMALMGVALHSHQEQLIGGVAVKSEHSTTA
modifications: full-length
notes: full-length Drosophila EcR expression cassette in pPacU
B2: DDV: EcR chimera: Drosophila melanogaster C+D and E domains, VP16; SEQ ID NO:95-96 (protein)
chain: MGRDDLSPSSSLNGYSANESCDAKKSKKGPAPRVQEELCLVCGDRASGYHYNALTCEGCKGFFRRSVTKSAVYCCKFGRACEMDMYMRRKCQECRLKKCLAVGMRPECVVPENQCAMKRREKKAQKEKDKMTTSPSSQHGGNGSLASGGGQDFVKKEILDLMTCEPPQHATIPLLPDEILAKCQARNIPSLTYNQLAVIYKLIWYQDGYEQPSEEDLRRIMSQPDENESQTDVSFRHITEITILTVQLIVEFAKGLPAFTKIPQEDQITLLKACSSEVMMLRMARRYDHSSDSIFFANNRSYTRDSYKMAGMADNIEDLLHFCRQMFSMKVDNVEYALLTAIVIFSDRPGLEKAQLVEAIQSYYIDTLRIYILNRHCGDSMSLVFYAKLLSILTELRTLGNQNAEMCFSLKLKNRKLPKFLEEIWDVHAIPPKLAPPTDVSLGDELHLDGEDVAMAHADALDDFDLDMLGDGDSPGPGFTPHDSAPYGALDMADFEFEQMFTDALGIDEYGG
B3: MaFL: full-length Manduca EcR expression cassette in pPacU (protein, UniProt P49883 1-556, looked up)
chain: MRRRWSNNGCFPLRMFEESSSEVTSSSAFGMPAAMVMSPESLASPEYGGLELWSYDETMTNYPAQSLLGACNAPQQQQQQQQQQPSAQPLPSMPLPMPPTTPKSENESMSSGREELSPASSINGCSTDGEPRRQKKGPAPRQQEELCLVCGDRASGYHYNALTCEGCKGFFRRSVTKNAVYICKFGHACEMDMYMRRKCQECRLKKCLAVGMRPECVVPESTCKNKRREKEAQREKDKLPVSTTTVDDHMPAIMQCDPPPPEAARIHEVVPRFLTEKLMEQNRLKNVTPLSANQKSLIARLVWYQEGYEQPSEEDLKRVTQTWQLEEEEEEETDMPFRQITEMTILTVQLIVEFAKGLPGFSKISQSDQITLLKASSSEVMMLRVARRYDAATDSVLFANNQAYTRDNYRKAGMSYVIEDLLHFCRCMYSMSMDNVHYALLTAIVIFSDRPGLEQPLLVEEIQRYYLKTLRVYILNQHSASPRCAVLFGKILGVLTELRTLGTQNSNMCISLKLKNRKLPPFLEEIWDVAEVSTTQPTPGVAAQVTPIVVDNPAAL
modifications: full-length
notes: full-length Manduca EcR expression cassette in pPacU
B4: MMV: EcR chimera: Manduca sexta C+D and E domains, VP16; SEQ ID NO:93-94 (protein)
chain: MGREELSPASSINGCSTDGEPRRQKKGPAPRQQEELCLVCGDRASGYHYNALTCEGCKGFFRRSVTKNAVYICKFGHACEMDMYMRRKCQECRLKKCLAVGMRPECVVPESTCKNKRREKEAQREKDKLPVSTTTVDDHMPAIMQCDPPPPEAARIHEVVPRFLTEKLMEQNRLKNVTPLSANQKSLIARLVWYQEGYEQPSEEDLKRVTQTWQLEEEEEEETDMPFRQITEMTILTVQLIVEFAKGLPGFSKISQSDQITLLKASSSEVMMLRVARRYDAATDSVLFANNQAYTRDNYRKAGMSYVIEDLLHFCRCMYSMSMDNVHYALLTAIVIFSDRPGLEQPLLVEEIQRYYLKTLRVYILNQHSASPRCAVLFGKILGVLTELRTLGTQNSNMCISLKLKNRKLPPFLEEIWDVAEVSTTKLAPPTDVSLGDELHLDGEDVAMAHADALDDFDLDMLGDGDSPGPGFTPHDSAPYGALDMADFEFEQMFTDALGIDEYGG
B5: LMV: EcR chimera: Locusta migratoria C+D domains, Manduca sexta E domain, VP16; SEQ ID NO:83-84 (protein)
chain: MGREDLSPLSSLNGYSADSCDAKKKKGAAPRQQEELCLVCGDRASGYHYNALTCEGCKGFFRRSITKNAVYQCKYGNNCEIDMYMRRKCQECRLKKCLTVGMRPECVVPEYQCAVKRKEKKAQKDKDKPNSTTNGSPEVMMLKDIDAKVEPERPLSNGIKPVSPEQEELIHRLVWYQEGYEQPSEEDLKRVTQTWQLEEEEEEETDMPFRQITEMTILTVQLIVEFAKGLPGFSKISQSDQITLLKASSSEVMMLRVARRYDAATDSVLFANNQAYTRDNYRKAGMSYVIEDLLHFCRCMYSMSMDNVHYALLTAIVIFSDRPGLEQPLLVEEIQRYYLKTLRVYILNQHSASPRCAVLFGKILGVLTELRTLGTQNSNMCISLKLKNRKLPPFLEEIWDVAEVSTTKLAPPTDVSLGDELHLDGEDVAMAHADALDDFDLDMLGDGDSPGPGFTPHDSAPYGALDMADFEFEQMFTDALGIDEYGG
B6: DMV: EcR chimera: Drosophila melanogaster C+D domains, Manduca sexta E domain, VP16; SEQ ID NO:71-72 (protein)
chain: MGRDDLSPSSSLNGYSANESCDAKKSKKGPAPRVQEELCLVCGDRASGYHYNALTCEGCKGFFRRSVTKSAVYCCKFGRACEMDMYMRRKCQECRLKKCLAVGMRPECVVPENQCAMKRREKKAQKEKDKMTTSPSSQHGGNGSLASGGGQDFVKKEILDLMTCEPPQHATIPLLPDEILAKCQARNIPSLTYNQLAVIYKLIWYQEGYEQPSEEDLKRVTQTWQLEEEEEEETDMPFRQITEMTILTVQLIVEFAKGLPGFSKISQSDQITLLKASSSEVMMLRVARRYDAATDSVLFANNQAYTRDNYRKAGMSYVIEDLLHFCRCMYSMSMDNVHYALLTAIVIFSDRPGLEQPLLVEEIQRYYLKTLRVYILNQHSASPRCAVLFGKILGVLTELRTLGTQNSNMCISLKLKNRKLPPFLEEIWDVAEVSTTKLAPPTDVSLGDELHLDGEDVAMAHADALDDFDLDMLGDGDSPGPGFTPHDSAPYGALDMADFEFEQMFTDALGIDEYGG

System: pCGS154 reporter
Assay: Transient transfection of S2 Drosophila cells with luciferase reporter and EcR receptor plasmids
Type: cell-based
Conditions: for No Chemistry (luciferase activity as ratio to pCGS154 reporter without chemistry): reporter CGS154, no chemical ligand; for Assay # 1 Fold Activation With Chemistry / Assay # 2 Fold Activation With Chemistry: Example 6, 0.2 μM tebufenozide vs without chemistry, normalized to pCGS154 reporter without receptor
Description: An in vivo cell based assay is designed to measure transcriptional activation by the receptors of a reporter plasmid. S2 Drosophila cells (ATCC CRL-1963) are transiently transfected with luciferase reporter and receptor expression plasmids using the calcium phosphate precipitation procedure (Di Nocera and David (1983) PNAS 80, 7095-7098). S2 cells are plated in 96 well format at a density of 2×10^5 in 166.6 μl of Schneider's Drosophila media supplemented with antibiotics and 10% heat inactivated fetal bovine serum (GIBO-BRL). The following day, 33.4 μl of a calcium phosphate precipitate containing 3-6 ng of pCGS154 reporter plasmid, 3-6 ng of EcR receptor plasmid along with salmon sperm DNA to a total of 400 ng DNA per well is added. Chemical ligands are added 16-24 hours after DNA addition to the cells. Cells are then harvested and extracted 24 hours after chemistry addition following the procedures for the luciferase assay by centrifuging and resuspending the cell pellets in 100 μl of cell culture lysis reagent (Promega). Luciferase activity is quantitated using chemiluminescence (Promega) using an analytical luminescence model 2001 luminometer.
S2 cells contain Drosophila EcR and USP. The endogenous USP can be used as the heterodimerization partner for EcR or exogenous USP expression plasmid can be added to the assay.
To compare the activities of Manduca and Drosophila EcR, S2 cells are transiently transfected using the above procedure with the reporter plasmid pCGS 154 and either full-length Drosophila EcR, DDV, full-length Manduca EcR, or MMV. Tebufenozide at 0.2 µM and 2 μM is used as the chemical ligand. Luciferase assays are performed as described above. All of the results are normalized as a ratio of activity to the light unit value for the pCGS154 reporter without chemistry.
The activities of the EcR-VP16 chimeras are compared by transiently transfecting S2 cells as described in Example 3. Tebufenozide is added to the cells at 0.2 μM concentration. Results are expressed as fold activation, a ratio of the activity of the constructs with chemistry added as compared to activity of the constructs without chemistry. All results are normalized to the luciferase activity of the pCGS154 reporter without receptor addition.
(§1) The activities of the EcR-VP16 chimeras are compared by transiently transfecting S2 cells as in Example 3. Tebufenozide is added to the cells at 0.2 μM concentration. Results are expressed as fold activation of constructs with chemistry as compared to without chemistry. All results are normalized to the luciferase activity of the pCGS154 reporter without receptor.
as §1, with “chemistry addition.” for “chemistry.”

| Molecule | No Chemistry (luciferase activity as ratio to pCGS154 reporter without chemistry) | Assay # 1 Fold Activation With Chemistry [fold] | Assay # 2 Fold Activation With Chemistry [fold] | Fold Activation With Chemistry Assay #1 (Example 7, 0.2 μM tebufenozide) [fold] | Fold Activation With Chemistry Assay #2 (Example 7, 0.2 μM tebufenozide) [fold] | Fold Activation With Chemistry (Example 6, third column (LLV, LMV), 0.2 μM tebufenozide) [fold] |
| --- | --- | --- | --- | --- | --- | --- |
| B1 | 1 | – | – | – | – | – |
| B2 | 1 | 1.01 | 0.68 | – | – | – |
| B3 | 1 | – | – | – | – | – |
| B4 | 1 | 87.65 | 151.06 | 719.2 | 595.1 | – |
| B5 | – | – | – | – | – | 48.8 |
| B6 | – | 8.67 | 3.72 | – | – | – |
